By Kd is commonly meant the equilibrium constant for the complex coming apart. One may read the kon as a measure of how fast the partners come together.

Where two headings read alike, the source gives them in different places.

From US20110008344A1 (THOMAS JEFFERSON UNIVERSITY, published 2011) come the findings set out here.

Assay [1] concerns the target T1, recombinant 50 kD C-terminal BoNT/A domain (HC50A) (Clostridium botulinum, UniProt P0DPI1 861-1296). The assay is described as follows: KinExA, solution phase. For orientation: A kinetic exclusion assay measures how much of one partner remains free in solution.
Assay [2] addresses T1, recombinant 50 kD C-terminal BoNT/A …. The assay is described as follows: KinExA Direct Kinetics method, […]; KinExA, solution phase.
The target is the same in assay [3]. The assay is described as follows: SPR (Biacore 3000), 13A immobilized on CM5 chip, HC50A as analyte.
The target is the same in assay [4].

B1: botulinum neurotoxin 13A antibody (human monoclonal antibody produced by hybridoma 13A, ATCC PTA-8871) (antibody, V domains shown)
VH: EVQLVESGGGLVQPGRSLRLSCTASGFTFGDSAMSWVRQAPGKGLEWVGFIRGKPYGGKPEYAASVKGRFTISRDDSKSIAYLQMNSLKTEDTAVYYCTAGMTTVTIYDYWGQGTLVTVSS
VL: QPLSVSVALGQTAGITCEGNNIGSKNVHWYQQKPGQAPVLVIYRDSNRPSGIPERFSGFNSGNTATLTISRVQAGDEADYYCQVWDSSTGVFGGGTELTVLG
In the case of B1, the Kd in assay [1] came to 0.097 nM; in assay [4], 0.052 nM. In addition, the kon was found to be 7.2e+06 M⁻¹ s⁻¹ in assay [2] and 1.7e+07 M⁻¹ s⁻¹ in assay [3].
